For one data set, the target named is T1, BetI2 (Ruegeria pomeroyi, UniProt Q5LUG8).
T1 construct: gene betI; full length gene in pET28a(+), C-terminal His-tag, expressed in E. coli BL21(DE3), Ni-NTA and gel filtration; RED-Tris-NTA labelled for MST
T1 sequence (Q5LUG8 1-193): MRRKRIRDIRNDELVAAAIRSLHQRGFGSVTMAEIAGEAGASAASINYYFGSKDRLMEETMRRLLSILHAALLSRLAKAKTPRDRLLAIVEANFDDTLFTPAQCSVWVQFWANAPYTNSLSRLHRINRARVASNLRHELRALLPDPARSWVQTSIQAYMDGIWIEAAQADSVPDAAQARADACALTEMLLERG
In words: microscale thermophoresis of BetI2 binding to DNA probes with or without choline. Conditions: effector; DNA probes P1 (betI2 box 1) and P2 (betI2 box 2); 1x PBS pH 7.4, 0.05% Tween-20, 25 C; labelled protein. A general note: In MST a laser heats a spot of the sample, and binding alters the fluorescence response.

Data set [1] concerns T2, BetI2 (Ruegeria pomeroyi DSS-3), ORF:6e67dd5c.
T2 sequence: T1 sequence (Q5LUG8 1-193)
Put plainly: EMSA. The conditions noted are these: EMSA: 2 mM EDTA, 20 mM KCl, 0.5 mM DTT, 4% Ficoll-400, pH 8.0, 2 ug poly(dI-dC), 20 uL, protein 0-28 uM; MST: 1x PBS pH 7.4, 0.05% Tween-20, 25 C. On the technique in general: Mobility shift assays separate free from complexed probe on a gel.

Data set [2] deals with BetI2 (Ruegeria pomeroyi DSS-3). Put plainly: MST. Conditions: EMSA: 2 mM EDTA, 20 mM KCl, 0.5 mM DTT, 4% Ficoll-400, pH 8.0, 2 ug poly(dI-dC), 20 uL, protein 0-28 uM, MST: 1x PBS pH 7.4, 0.05% Tween-20, 25 C.

In the case of `C[N+](C)(C)CCO` [choline], at BetI2, the “microscale thermophoresis of BetI2 binding to DNA probes with or without choline” value is given as “The affinities of BetI2 to the IGR probe variants with or without choline were determined”. With “GGCCATATTGGCCAATCGGCCAAAGGGTTCAAGTTTAAAGGATTATCGAAAAACTTGAACGACTGTTCAAGTTTTGGTTCTTTTGATCAGGTTATTGTGCTAATTTCCCGCATCATTCGACCCGGCCCGGAGGAGAGGGCGGGCGTGAACCCAGGGAGGGACCATGAT (double strand) [IGR (EMSA probe)]”, the binding result in data set [1] was “binds”. Turning to IGR (MST probe), the Kd (usually the free concentration of one partner at which half of the binding sites on the other are occupied at equilibrium, for simple one-to-one binding) in data set [2] (no choline stated) was 870 nM.

As to P1 (IGR variant, betI2 box 1 only), the binding signal (fold affinity of P1 over P2) in data set [2] (choline) came out at 2. In addition, the binding signal (fold Kd of P1 over P2) in data set [2] (no choline) is 4. P2 (IGR variant, betI2 box 2 only): in data set [2], the binding signal (affinity relative to P1 with choline) stood at 0.5. In addition, in data set [2] (no choline, scale: reference for P1 without choline), the binding signal came to 1.

Source of the values: PMC12442346, “Novel regulatory mechanism of choline-O-sulfate and choline catabolism by two BetIs in Alphaproteobacteria” (Applied and Environmental Microbiology, 2025).
